B1: Fab m18 N30A (HCDR1) (Fab, V domains shown)
VH: VQLLESGPGVVKPSETLSLTCTVSGASVANYYWTWVRQPPGKGLEWIGNVYDSGDTNYNPSLSSRLSLSMDTSKNQFSLRLSSVTAADTATYYCARYHRHFIRGPLSFDYWGRGTLVTVSS
VL: LQMTQSPSFLSASVGDRVSITCRASQDIQKFLAWYQLTPGDAPKLLMYSASTLQSGVPSRFSGSGSGTEFTLTISGLQPEDFATYYCQHLKRYPYTFGQGTKLEIS
B2: Fab m18 D53A (HCDR2) (Fab, V domains shown)
VH: B1 VH with A29N, D52A
VL: B1 VL
B3: Fab m18 D28A (LCDR1) (Fab, V domains shown)
VH: B1 VH with A29N
VL: B1 VL with D27A
B4: Fab m18 S62A (HCDR2) (Fab, V domains shown)
VH: B1 VH with A29N, S61A
VL: B1 VL
B5: Fab m18 R100aE (HCDR3) (Fab, V domains shown)
VH: B1 VH with A29N, R103E
VL: B1 VL
B6: Fab m18 Y102A (HCDR3) (Fab, V domains shown)
VH: B1 VH with A29N, Y110A
VL: B1 VL
B7: Fab m18 Y32A (HCDR1) (Fab, V domains shown)
VH: B1 VH with A29N, Y31A
VL: B1 VL
B8: Fab m18 R93A (LCDR3) (Fab, V domains shown)
VH: B1 VH with A29N
VL: B1 VL with R92A
B9: Fab m18 T53A (LCDR2) (Fab, V domains shown)
VH: B1 VH with A29N
VL: B1 VL with T52A
B10: Fab m18 S65A (HCDR2) (Fab, V domains shown)
VH: B1 VH with A29N, S64A
VL: B1 VL
B11: Fab m18 S56A (LCDR2) (Fab, V domains shown)
VH: B1 VH with A29N
VL: B1 VL with S55A
B12: Fab m18 R24A (LCDR1) (Fab, V domains shown)
VH: B1 VH with A29N
VL: B1 VL with R23A
B13: Fab m18 Q27A (LCDR1) (Fab, V domains shown)
VH: B1 VH with A29N
VL: B1 VL with Q26A
B14: Fab m18 S64A (HCDR2) (Fab, V domains shown)
VH: B1 VH with A29N, S63A
VL: B1 VL
B15: Fab m18 N31A (HCDR1) (Fab, V domains shown)
VH: B1 VH with A29N, N30A
VL: B1 VL
B16: Fab m18 P95A (LCDR3) (Fab, V domains shown)
VH: B1 VH with A29N
VL: B1 VL with P94A
B17: Fab m18 H96A (HCDR3) (Fab, V domains shown)
VH: B1 VH with A29N, H98A
VL: B1 VL
B18: Fab m18 Y33F (HCDR1) (Fab, V domains shown)
VH: B1 VH with A29N, Y32F
VL: B1 VL
B19: Fab m18 K31R (LCDR1) (Fab, V domains shown)
VH: B1 VH with A29N
VL: B1 VL with K30R
B20: Fab m18 T57A (HCDR2) (Fab, V domains shown)
VH: B1 VH with A29N, T56A
VL: B1 VL
B21: Fab m18 P61A (HCDR2) (Fab, V domains shown)
VH: B1 VH with A29N, P60A
VL: B1 VL
B22: Fab m18 D56A (HCDR2) (Fab, V domains shown)
VH: B1 VH with A29N, D55A
VL: B1 VL
B23: Fab m18 Y33A (HCDR1) (Fab, V domains shown)
VH: B1 VH with A29N, Y32A
VL: B1 VL
B24: Fab m18 Q30A (LCDR1) (Fab, V domains shown)
VH: B1 VH with A29N
VL: B1 VL with Q29A
B25: Fab m18 S54A (HCDR2) (Fab, V domains shown)
VH: B1 VH with A29N, S53A
VL: B1 VL

Substitutions are numbered along the chain they refer to. In names and notes the source's numbering stands. A value given as a limit tells only on which side of the number the result lay.

The first assay deals with T1, HIV-1 YU-2 gp120 (HIV-1 (YU-2), UniProt P35961). As to the kind of experiment: SPR.
B1 registered an IC50 of more than 1000 nM.
Regarding B2, the 50% inhibitory concentration (IC50) is more than 500 nM.
As for B3, half-maximal inhibition (IC50) required 70.8 ± 1.8 nM.
The same measure, in the same setting: to B4 belongs more than 1000 nM; to B5, more than 1000 nM.
On the same count and under the same terms, as for B6, the figure is more than 1000 nM; as for B7, 432 ± 31.5 nM; as for B8, 78.7 ± 3.2 nM.
Still for that read-out and setting: to B9 belongs more than 500 nM; to B10, more than 1000 nM; to B11, more than 500 nM.
As to B12, the IC50 is more than 1000 nM.
The same measure, in the same setting: to B13 belongs 54.5 ± 3.5 nM; to B14, more than 1000 nM.
On the same count and under the same terms, as for B15, the figure is more than 1000 nM; as for B16, more than 1000 nM.
B17 came in with an IC50 of more than 500 nM.
On to B18, for which the IC50 is more than 1000 nM.
Take B19: the IC50 is more than 1000 nM.
Same read-out and setting: to B20 belongs 33.1 ± 8 nM; to B21, more than 1000 nM.
With B22, the IC50 was more than 1000 nM.
B23 gave an IC50 of 150 ± 3.5 nM.
B24 had an IC50 of 129 ± 5 nM.
Same read-out and setting: as for B25, the figure is more than 1000 nM.

The target in a further assay is T1, HIV-1 YU-2 gp120. As to the kind of experiment: SPR. This is another data set of the same source.
In the case of B1, the IC50 was more than 1000 nM.
In turn, B2 gave an IC50 of more than 500 nM.
Molecule B3 registered a half-inhibitory concentration (IC50) of 65.5 ± 0.5 nM.
Still for that read-out and setting: to B4 belongs more than 1000 nM.
The same measure, in the same setting: as for B5, the figure is more than 1000 nM; as for B6, more than 1000 nM.
On to B7, for which the IC50 came out at 247 ± 15.8 nM.
Consider B8, for which it took 49.5 ± 20.5 nM to reach half-maximal inhibition (IC50).
As to B9, the IC50 was more than 500 nM.
On the same count and under the same terms, to B10 belongs more than 1000 nM; to B11, more than 500 nM; to B12, more than 1000 nM.
Still for that read-out and setting: to B13 belongs 49.6 ± 3.1 nM; to B14, more than 1000 nM; to B15, more than 1000 nM.
Same read-out and setting: as for B16, the figure is more than 1000 nM.
B17: the IC50 was more than 500 nM.
As for B18, the IC50 is more than 1000 nM.
Same read-out and setting: as for B19, the figure is more than 1000 nM.
Still for that read-out and setting: as for B20, the figure is 16.8 ± 3.8 nM; as for B21, more than 1000 nM.
The same measure, in the same setting: to B22 belongs more than 1000 nM.
In turn, B23 gave an IC50 of 135 ± 7.1 nM.
The same measure, in the same setting: as for B24, the figure is 80.3 ± 16.7 nM; as for B25, more than 1000 nM.

The next assay addresses T1, HIV-1 YU-2 gp120. Kind of assay: SPR. The source holds these as a separate data set.
In turn, B1 displayed a Kd of 40.9 nM, a koff of 0.0017 ± 0.3 s⁻¹ and a kon of 40000 ± 0.4 M⁻¹ s⁻¹.
For B2, in that order: 7 nM, 0.00012 ± 1.1 s⁻¹ and 16000 ± 1.3 M⁻¹ s⁻¹.
As to B3, binding was put at a Kd of 0.7 nM, the koff came to 1.9e-05 s⁻¹ and the kon stood at 28000 ± 3.1 M⁻¹ s⁻¹.
For B4, in that order: 44.2 nM, 0.0016 ± 0.4 s⁻¹ and 35000 ± 0.9 M⁻¹ s⁻¹.
In turn, B5 returned a Kd of 69.2 nM, an off-rate (koff) of 0.0011 ± 0.7 s⁻¹ and a kon of 16000 ± 0.6 M⁻¹ s⁻¹.
Consider B6, for which the Kd is 31.5 nM, the koff stood at 0.0012 ± 0.4 s⁻¹ and the kon was found to be 37000 ± 1.4 M⁻¹ s⁻¹.
Turning to B7, the Kd stood at 0.4 nM, the koff came to 6.1e-05 s⁻¹ and the kon is 120000 ± 0.2 M⁻¹ s⁻¹.
Molecule B8 yielded a Kd of 2 nM, a koff of 8e-05 s⁻¹ and a kon of 39000 ± 0.2 M⁻¹ s⁻¹.
For B9, in that order: 35.2 nM, 0.00071 ± 7 s⁻¹ and 20000 ± 2.1 M⁻¹ s⁻¹.
For B10, in that order: 39.1 nM, 0.0014 ± 0.2 s⁻¹ and 36000 ± 1.2 M⁻¹ s⁻¹.
For B11, in that order: 25.7 nM, 0.00066 ± 1.4 s⁻¹ and 28000 ± 0.7 M⁻¹ s⁻¹.
In the case of B12, the Kd amounted to 16.8 nM, the koff turned out to be 0.00039 ± 3.7 s⁻¹ and the kon came out at 23000 ± 0.9 M⁻¹ s⁻¹.
Consider B13, for which the Kd turned out to be 6.7 nM, the koff worked out at 0.00049 ± 3.9 s⁻¹ and the kon is 72000 ± 2.9 M⁻¹ s⁻¹.
For B14, in that order: 40 nM, 0.00086 ± 5.9 s⁻¹ and 21000 ± 0.7 M⁻¹ s⁻¹.
The corresponding values for B15 are 25.9 nM, 0.0013 ± 0.5 s⁻¹ and 51000 ± 1 M⁻¹ s⁻¹.
Molecule B16 returned a Kd of 35.5 nM, a koff of 0.0019 ± 0.3 s⁻¹ and a kon of 53000 ± 1.6 M⁻¹ s⁻¹.
For B17, in that order: 11.7 nM, 0.0011 ± 0.6 s⁻¹ and 93000 ± 2.9 M⁻¹ s⁻¹.
For B18, in that order: 56.3 nM, 0.0024 ± 0.8 s⁻¹ and 42000 ± 1.9 M⁻¹ s⁻¹.
The corresponding values for B19 are 34.7 nM, 0.0011 ± 0.2 s⁻¹ and 31000 ± 1.2 M⁻¹ s⁻¹.
Turning to B20, the Kd amounted to 2.5 nM, the koff turned out to be 0.00021 ± 0.4 s⁻¹ and the kon stood at 84000 ± 2 M⁻¹ s⁻¹.
The corresponding values for B21 are 19.3 nM, 0.00063 ± 1 s⁻¹ and 33000 ± 1 M⁻¹ s⁻¹.
Turning to B22, the Kd worked out at 26.2 nM, the koff is 0.00061 ± 4.5 s⁻¹ and the kon stood at 25000 ± 0.6 M⁻¹ s⁻¹.
The corresponding values for B23 are 30.7 nM, 0.0038 ± 0.2 s⁻¹ and 120000 ± 0.5 M⁻¹ s⁻¹.
For B24, in that order: 1.4 nM, 0.00012 ± 0.1 s⁻¹ and 91000 ± 0.1 M⁻¹ s⁻¹.
For B25, in that order: 56.4 nM, 0.0022 ± 0.7 s⁻¹ and 39000 ± 0.5 M⁻¹ s⁻¹.
